B1: humanized Nb21 (hNb21) (VHH)
VHH: QVQLVESGGGLVQPGGSLRLSCAASWFRRAPGKEREFVAYADSVKGRFTISRDNAKNTLYLQMNSLRAEDTAVYYCAAWGQGTLVTVS
B2: Nb64 (VHH)
VHH: QVQLVESGGGLVQAGGSLRLSCAVSGRTFSIAGMGWFRQAPGKDREFLGGITWNDGTTWYADSVKGRFTISRDNAKNMLSLRMNSLKPEDTAVYYCAAGPRLGSTPRAYDYWGQGTQVTVS
B3: Nb93 (VHH)
VHH: EVQLVESGGGLVQPGGSLRLSCAASGFTFSSYAMSWVRQAPGKGREWVAGITPGSGTFYADSVKGRFTISRDNAKNTLSLEINSLKPEDTALYYCAKCRQEFSWDFSSRDPDDFDYWGQGTQVTVS
B4: Nb21 WT (VHH)
VHH: QVQLVESGGGLVQAGGSLRLSCAVSGLGAHRVGWFRRAPGKEREFVAAIGANGGNTNYLDSVKGRFTISRDNAKNTIYLQMNSLKPQDTAVYYCAARDIETAEYTYWGQGTQVTVSS
B5: Nb17 (VHH)
VHH: HVQLVESGGGLVQAGGSLRLSCAASGSIFSSNAMSWYRQAPGKQRELVASITSGGNADYADSVKGRFTISRDKNTVYPEMSSLKPADTAVYYCHAVGQEASAYAPRAYWGQGTQVTVS
B6: Nb34 (VHH)
VHH: DVQLVESGGGLVQAGGSLRLSCAASGFTFSNYVMYWGRQAPGKGREWVSGIDSDGSDTAYASSVKGRFTISRDNAKNTLYLQMNNLKPEDTALYYCVKSKDPYGSPWTRSEFDDYWGQGTQVTVS
B7: Nb105 (VHH)
VHH: HVQLVESGGGLVQAGGSLRLSCAVSGRTFSTYGMAWFRQAPGKERDFVATITRSGETTLYADSVKGRFTISRDNAKNTVYLQMNSLKIEDTAVYYCAVRRDSSWGYSRDLFEYDYWGQGTQVTVS
B8: Nb95 (VHH)
VHH: QVQLVESGGGLVQAGGSLRLSCAASGRTFSSYSMGWFRQAQGKEREFVATINGNGRDTYYTNSVKGRFTISRDDATNTVYLQMNSLKPEDTAIYYCAADKDVYYGYTSFPNEYEYWGQGTQVTVS
B9: Nb9 (VHH)
VHH: HVQLVESGGGLVQTGGSLRLSCAFSGYTFSTFPTAWFRQAPGKEREFVAGIRWNGGSRDYTEYADFVKGRFTISRDNAKNMIYLQMISLKPEDTALYYCAASHGVVDGTSVNGYRYWGQGTQVTVS

Assays:
[1] = biological target: RBD (SARS-CoV-2 spike) (SARS-CoV-2, UniProt P0DTC2 319-541); assay: ELISA
[2] = biological target: RBD (SARS-CoV-2, UniProt P0DTC2 319-541); assay: ELISA

Row | Binder | EC50 [1] [nM] | EC50 [2] [nM]
1 | B1 | 1.34 | 
2 | B2 | 1.22 | 
3 | B3 | 1.13 | 
4 | B4 |  | 1.69
5 | B5 | 0.97 | 
6 | B6 | 0.53 | 
7 | B7 | 1.69 | 
8 | B8 | 3.77 | 
9 | B9 | 2.76 | 
